# Data as given in publication PMC5676040, “The NOX Family of Proteins Is Also Present in Bacteria” (mBio, 2017).
# How the values were obtained:
# SpNOX = molecular target: T1, SpNOX (Streptococcus pneumoniae, UniProt Q8CZ28); assay: cytochrome c reduction, absorbance at […] nm; type: biochemical; details: read-out: 50% inhibitory concentration
# T1 construct: gene spr0531; full-length membrane protein, codon-optimized synthetic gene, N-terminal His tag (pQLink N), E. coli BL21(DE3) pLysS, purified in MNG detergent; bis-His heme ligands H69, H83, H129, H142
# T1 sequence (Q8CZ28 1-400): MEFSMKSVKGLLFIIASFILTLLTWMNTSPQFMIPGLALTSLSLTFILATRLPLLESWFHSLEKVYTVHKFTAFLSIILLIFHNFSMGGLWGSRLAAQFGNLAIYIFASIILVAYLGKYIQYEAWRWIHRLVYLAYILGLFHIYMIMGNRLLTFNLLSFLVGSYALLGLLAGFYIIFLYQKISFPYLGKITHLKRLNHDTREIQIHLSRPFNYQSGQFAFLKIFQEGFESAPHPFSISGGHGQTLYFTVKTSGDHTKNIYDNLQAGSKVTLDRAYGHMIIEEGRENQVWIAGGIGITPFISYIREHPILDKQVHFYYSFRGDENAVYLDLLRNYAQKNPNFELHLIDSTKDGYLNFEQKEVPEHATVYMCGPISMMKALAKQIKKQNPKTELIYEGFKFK
# [1] = system: Cc1cc2nc3c(=O)[nH]c(=O)nc-3n(C[C@H](O)[C@H](O)[C@H](O)COP(=O)(O)OP(=O)(O)OC[C@H]3O[C@@H](n4cnc5c(N)ncnc54)[C@H](O)[C@@H]3O)c2cc1C; assay: purified protein; type: biochemical, Streptococcus pneumoniae; details: 200 µM NADPH; cytochrome c 100 µM; Figure 3E; varied: cofactor
# [2] = system: NC(=O)C1=CN([C@@H]2O[C@H](COP(=O)(O)OP(=O)(O)OC[C@H]3O[C@@H](n4cnc5c(N)ncnc54)[C@H](OP(=O)(O)O)[C@@H]3O)[C@@H](O)[C@H]2O)C=CC1; assay: purified protein; type: biochemical, Streptococcus pneumoniae; details: 10 µM FAD; cytochrome c 100 µM; Figure 3D
Compound,IC50 (SpNOX),Km [1],Km [2]
c1ccc2c(c1)[I+]c1ccccc1-2 [DPI],~5 µM,–,–
SpNOX (Streptococcus pneumoniae R6),–,0.13 µM,8 µM
